Experimental findings from patent US20230125550A1 (ARCELLX, published 2023) are described below.

The target of the assay is T1, recombinant human CD123-Fc (human, UniProt P26951 19-305).
T1 construct: not shown: Fc part of CD123-Fc
T1 sequence: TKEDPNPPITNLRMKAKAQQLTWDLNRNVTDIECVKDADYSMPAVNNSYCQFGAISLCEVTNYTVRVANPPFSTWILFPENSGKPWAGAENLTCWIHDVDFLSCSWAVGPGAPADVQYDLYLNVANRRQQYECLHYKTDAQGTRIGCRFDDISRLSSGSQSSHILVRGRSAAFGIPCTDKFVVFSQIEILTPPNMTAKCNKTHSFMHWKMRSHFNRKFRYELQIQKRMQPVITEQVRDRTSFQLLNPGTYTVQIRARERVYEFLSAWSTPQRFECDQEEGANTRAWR
As to the kind of experiment: phage ELISA, captured CD123-Fc. The procedure:
Individual colonies containing phagemid from BCMA panning output were picked and phage were rescued in 96-well format using VCSM13 helper phage following standard protocols. To assay target binding by ELISA, 96-well plates were coated with 1.3 microg/ml goat anti-human IgG1-Fc antibody followed by incubation with 5 nM of recombinant human target (BCMA-Fc, CD123-Fc, AFP, or AFP123) or IgG1-Fc. 50 microl of rescued phage diluted 5× in ELISA blocking buffer was then added to each well. Binding was detected using an HRP-conjugated anti-M13 antibody and the ELISA ratio for each sequence is reported as the absorbance at 450 nm for target (i.e., BCMA-Fc, CD123-Fc, AFP, or AFP123) divided by that for IgG1-Fc averaged across all screened wells containing that clone.
Background: ELISA stands for enzyme-linked immunosorbent assay.

B1: SEQ ID NO: 469 (designed binder)
chain: MGSWEEFKEDLAEIKVWLEALGGSEAELAWFEMGIADFEDGLQFYKGKGNPEVEALRKEAAAIRDELQAYRHN
notes: D domain, on phage
On to B1, for which the ELISA_avg came to 4.3 ratio A450 target/IgG1-Fc.

B2: SEQ ID NO: 470 (designed binder)
chain: MGSWHWFKEDLANIKDWLEALGGSEAELAWFEDNIADFEGDLQVYKGKGNPEVEALRKEAAAIRDELQAYRHN
notes: D domain, on phage
With B2, the ELISA_avg is 3.3 ratio A450 target/IgG1-Fc.

B3: SEQ ID NO: 453 (designed binder)
chain: MGSWSFFKEELANIQVYLEALGGSEAELAWFEEDIADFEEDLQHYKGKGNPEVEALRKEAAAIRDELQAYRHN
notes: D domain, on phage
Consider B3, for which the ELISA_avg came out at 3.8 ratio A450 target/IgG1-Fc.

B4: SEQ ID NO: 454 (designed binder)
chain: MGSWEFFKYELADIKDELEALGGSEAELAWFEEDIATFEEWLQGYKGKGNPEVEALRKEAAAIRDELQAYRHN
notes: D domain, on phage
In the case of B4, the ELISA_avg stood at 3.4 ratio A450 target/IgG1-Fc.

B5: SEQ ID NO: 451 (designed binder)
chain: MGSWYWFKQDLAHIKSMLEALGGSEAELAWFEEDIADFESELQEYKGKGNPEVEALRKEAAAIRDELQAYRHN
notes: D domain, on phage
As for B5, the ELISA_avg came to 3.3 ratio A450 target/IgG1-Fc.

B6: SEQ ID NO: 455 (designed binder)
chain: MGSWQTFKDELAHIKWELEALGGSEAELAWFEWDIANFEEELQEYKGKGNPEVEALRKEAAAIRDELQAYRHN
notes: D domain, on phage
In the case of B6, the ELISA_avg is 5.5 ratio A450 target/IgG1-Fc.

B7: SEQ ID NO: 452 (designed binder)
chain: MGSWTFFKWDLADIKANLEALGGSEAELAWFEEDLAGFEAELQEYKGKGNPEVEALRKEAAAIRDELQAYRHN
notes: D domain, on phage
For the molecule B7, the ELISA_avg was 4.8 ratio A450 target/IgG1-Fc.

B8: SEQ ID NO: 459 (designed binder)
chain: MGSWIFFKQDLAEIKLNLEALGGSEAELAWFEDDIAWFESHLQDYKGKGNPEVEALRKEAAAIRDELQAYRHN
notes: D domain, on phage
Take B8: the ELISA_avg is 3.8 ratio A450 target/IgG1-Fc.

B9: SEQ ID NO: 456 (designed binder)
chain: MGSWYWFKEELAFIKWELEALGGSEAELALFEEDIAYFEEMLQEYKGKGNPEVEALRKEAAAIRDELQAYRHN
notes: D domain, on phage
In the case of B9, the ELISA_avg is 9.4 ratio A450 target/IgG1-Fc.

B10: SEQ ID NO: 439 (designed binder)
chain: MGSWQWFKDDLAYIKETLEALGGSEAELALFEDMIADFEFELQWYKGKGNPEVEALRKEAAAIRDELQAYRHN
notes: D domain, on phage
In the case of B10, the ELISA_avg stood at 6.3 ratio A450 target/IgG1-Fc.

B11: SEQ ID NO: 444 (designed binder)
chain: MGSWYWFKDDLAEIKGLLEALGGSEAELAEFEDEIAVFEQELQEYKGKGNPEVEALRKEAAAIRDELQAYRHN
notes: D domain, on phage
For B11, the ELISA_avg was 10.4 ratio A450 target/IgG1-Fc.

B12: SEQ ID NO: 435 (designed binder)
chain: MGSWHFFKDDLAWIKNELEALGGSEAELAMFEDDIAMFETMLQSYKGKGNPEVEALRKEAAAIRDELQAYRHN
notes: D domain, on phage
Regarding B12, the ELISA_avg was 3.2 ratio A450 target/IgG1-Fc.

B13: SEQ ID NO: 436 (designed binder)
chain: MGSWHWFKTDLADIKEELEALGGSEAELAMFEDDIAEFEEFLQMYKGKGNPEVEALRKEAAAIRDELQAYRHN
notes: D domain, on phage
As for B13, the ELISA_avg is 3.5 ratio A450 target/IgG1-Fc.

B14: SEQ ID NO: 442 (designed binder)
chain: MGSWGHFKQDLAWIKDTLEALGGSEAELAFFEDDIAMFEMELQDYKGKGNPEVEALRKEAAAIRDELQAYRHN
notes: D domain, on phage
With B14, the ELISA_avg came to 4.9 ratio A450 target/IgG1-Fc.

B15: SEQ ID NO: 445 (designed binder)
chain: MGSWMFFKEDLADIKWALEALGGSEAELAFFEEEIALFEQHLQQYKGKGNPEVEALRKEAAAIRDELQAYRHN
notes: D domain, on phage
As to B15, the ELISA_avg stood at 3.2 ratio A450 target/IgG1-Fc.

B16: SEQ ID NO: 467 (designed binder)
chain: MGSWEFFKEVLAEIKYDLEALGGSEAELAWFETDIAGFEIDLQVYKGKGNPEVEALRKEAAAIRDELQAYRHN
notes: D domain, on phage
For B16, the ELISA_avg came to 8.2 ratio A450 target/IgG1-Fc.

B17: SEQ ID NO: 468 (designed binder)
chain: MGSWVFFKEDLATIKNDLEALGGSEAELAWFEMMIADFEADLQYYKGKGNPEVEALRKEAAAIRDELQAYRHN
notes: D domain, on phage
In the case of B17, the ELISA_avg is 3.1 ratio A450 target/IgG1-Fc.

B18: SEQ ID NO: 461 (designed binder)
chain: MGSWVTFKDELADIKDFLEALGGSEAELAFFEVDIAEFEAELQFYKGKGNPEVEALRKEAAAIRDELQAYRHN
notes: D domain, on phage
As to B18, the ELISA_avg was determined as 7.6 ratio A450 target/IgG1-Fc.

B19: SEQ ID NO: 463 (designed binder)
chain: MGSWETFKYELAEIKDYLEALGGSEAELAWFEDDIAEFEFELQYYKGKGNPEVEALRKEAAAIRDELQAYRHN
notes: D domain, on phage
With B19, the ELISA_avg came out at 4.4 ratio A450 target/IgG1-Fc.

B20: SEQ ID NO: 462 (designed binder)
chain: MGSWVYFKDELADIKDFLEALGGSEAELAEFEEDIATFEYDLQWYKGKGNPEVEALRKEAAAIRDELQAYRHN
notes: D domain, on phage
Regarding B20, the ELISA_avg was 4.6 ratio A450 target/IgG1-Fc.

B21: SEQ ID NO: 464 (designed binder)
chain: MGSWNTFKYELAEIKHFLEALGGSEAELAMFEDDIAMFEWELQEYKGKGNPEVEALRKEAAAIRDELQAYRHN
notes: D domain, on phage
With B21, the ELISA_avg was 5 ratio A450 target/IgG1-Fc.

B22: SEQ ID NO: 441 (designed binder)
chain: MGSWIVFKDDLADIKRWLEALGGSEAELAMFEDEIADFEWQLQDYKGKGNPEVEALRKEAAAIRDELQAYRHN
notes: D domain, on phage
In the case of B22, the ELISA_avg worked out at 3.9 ratio A450 target/IgG1-Fc.

B23: SEQ ID NO: 433 (designed binder)
chain: MGSWNEFEDRLDAIWWRLFALGGSEAELAAFEKEIAAFESELQAYKGKGNPEVEALRVEAAFIRTMLQAYRHN
notes: D domain, on phage
On to B23, for which the ELISA_avg turned out to be 5.1 ratio A450 target/IgG1-Fc.

B24: SEQ ID NO: 457 (designed binder)
chain: MGSWNSFKDELAEIKAELEALGGSEAELAFFEEDIAWFEEHLQQYKGKGNPEVEALRKEAAAIRDELQAYRHN
notes: D domain, on phage
On to B24, for which the ELISA_avg is 3.3 ratio A450 target/IgG1-Fc.

B25: SEQ ID NO: 458 (designed binder)
chain: MGSWDLFKWELAEIKLGLEALGGSEAELAEFEYDIAWFEEDLQDYKGKGNPEVEALRKEAAAIRDELQAYRHN
notes: D domain, on phage
With B25, the ELISA_avg turned out to be 3.4 ratio A450 target/IgG1-Fc.

B26: SEQ ID NO: 466 (designed binder)
chain: MGSWIFFKEQLAIIKWELEALGGSEAELAWFEDDIAAFEDDLQFYKGQGNPEVEALRKEAAAIRDELQAYRHN
notes: D domain, on phage
Turning to B26, the ELISA_avg is 15 ratio A450 target/IgG1-Fc.

B27: SEQ ID NO: 443 (designed binder)
chain: MGSWGYFKDDLAWIKGELEALGGSEAELAEFEWFIAVFEEDLQVYKGKGNPEVEALRKEAAAIRDELQAYRHN
notes: D domain, on phage
In the case of B27, the ELISA_avg stood at 4.5 ratio A450 target/IgG1-Fc.

B28: SEQ ID NO: 434 (designed binder)
chain: MGSWFYFKDDLADINYMLEALGGSEAELAMFEDDIAGFELTLLKYKGKGNPEVEALRKEAAAIRDELQAYRHN
notes: D domain, on phage
On to B28, for which the ELISA_avg was found to be 3.7 ratio A450 target/IgG1-Fc.

B29: SEQ ID NO: 437 (designed binder)
chain: MGSWWLFKDDLAEIKYWLEALGGSEAELAFFEDDIAEFERGLQIYKGKGNPEVEALRKEAAAIRDELQAYRHN
notes: D domain, on phage
For B29, the ELISA_avg was 3.3 ratio A450 target/IgG1-Fc.

B30: SEQ ID NO: 465 (designed binder)
chain: MGSWYVFKDELAEIKQFLEALGGSEAELAWFEDDIAEFETQLQHYKGKGNPEVEALRKEAAAIRDELQAYRHN
notes: D domain, on phage
Turning to B30, the ELISA_avg came to 9.9 ratio A450 target/IgG1-Fc.

B31: SEQ ID NO: 460 (designed binder)
chain: MGSWHLFKWTLAEIKYELEALGGSEAELAWFEDDIATFEEELQWYKGKGNPEVEALRKEAAAIRDELQAYRHN
notes: D domain, on phage
As for B31, the ELISA_avg came out at 4 ratio A450 target/IgG1-Fc.

B32: SEQ ID NO: 449 (designed binder)
chain: MGSWTYFKDDLADIKQWLEALGGSEAELAFFEIEIAEFEEELQEYKGKGNPEVEALRKEAAAIRDELQAYRHN
notes: D domain, on phage
Consider B32, for which the ELISA_avg came out at 4.6 ratio A450 target/IgG1-Fc.

B33: SEQ ID NO: 448 (designed binder)
chain: MGSWTFFKNDLAEIKDWLEALGGSEAELADFEWDIAEFEYSLQEYKGKGNPEVEALRKEAAAIRDELQAYRHN
notes: D domain, on phage
In the case of B33, the ELISA_avg turned out to be 3.9 ratio A450 target/IgG1-Fc.

B34: SEQ ID NO: 440 (designed binder)
chain: MGSWILFKDDLAWIKETLEALGGSEAELAFFEDNIADFEEQLQGYKGKGNPEVEALRKEAAAIRDELQAYRHN
notes: D domain, on phage
For the molecule B34, the ELISA_avg was 6 ratio A450 target/IgG1-Fc.

B35: SEQ ID NO: 438 (designed binder)
chain: MGSWYEFKDDLAEIKEWLEALGGSEAELAFFELDIADFEWLLQLYKGKGNPEVEALRKEAAAIRDELQAYRHN
notes: D domain, on phage
For B35, the ELISA_avg came to 3.8 ratio A450 target/IgG1-Fc.

B36: SEQ ID NO: 447 (designed binder)
chain: MGSWVFFKDDLADIKDELEALGGSEAELAFFEIAIALFEWELQEYKGKGNPEVEALRKEAAAIRDELQAYRHN
notes: D domain, on phage
With B36, the ELISA_avg turned out to be 8.8 ratio A450 target/IgG1-Fc.

B37: SEQ ID NO: 446 (designed binder)
chain: MGSWTFFKEDLAGIKWELEALGGSEAELAWFEDEIALFEEELQEYKGKGNPEVEALRKEAAAIRDELQAYRHN
notes: D domain, on phage
On to B37, for which the ELISA_avg amounted to 7 ratio A450 target/IgG1-Fc.

B38: SEQ ID NO: 450 (designed binder)
chain: MGSWTVFKYDLADIKWWLEALGGSEAELADFEEEIAEFEEELQEYKGKGNPEVEALRKEAAAIRDELQAYRHN
notes: D domain, on phage
As for B38, the ELISA_avg was 3.9 ratio A450 target/IgG1-Fc.
